Assay results reported in patent publication US20050244864A1, “Development and use of fluorescent probes of unbound analytes” (priority 2004, published 2005).
Where a chain is given by its changes, count along the chain named. Names and notes keep the numbering of the source.

B1: L1P16 G10: acrylodan-labeled rI-FABP mutein: Y14 W, L38 wt, L72 M, Y117 A (protein, UniProt P02693 2-132, looked up, variant Y14W L72M Y117A)
Fatty acid-binding protein, …: AFDGTWKVDRNENWEKFMEKMGINVVKRKLGAHDNLKLTITQEGNKFTVKESSNFRNIDVVFELGVDFAYSMADGTELTGTWTMEGNKLVGKFKRVDNGKELIAVREISGNELIQTATYEGVEAKRIFKKE
modifications: acrylodan label
notes: acrylodan-labeled rI-FABP mutein: Y14 W, L38 wt, L72 M, Y117 A
B2: L1P8 H2: acrylodan-labeled rI-FABP mutein: Y14 M, L38 M, L72 W, Y117 wt (protein, UniProt P02693 2-132, looked up, variant Y14M L38M L72W)
Fatty acid-binding protein, …: B1 Fatty acid-binding protein, … with W14M, L38M, M72W, A117Y
modifications: acrylodan label
notes: acrylodan-labeled rI-FABP mutein: Y14 M, L38 M, L72 W, Y117 wt
B3: L2P16A3: acrylodan-labeled rI-FABP-L72A mutein: M18 I, G31 L, F55 WT, A73 G (protein, UniProt P02693 2-132, looked up, variant M18I G31L L72A A73G)
Fatty acid-binding protein, …: B1 Fatty acid-binding protein, … with W14Y, M18I, G31L, M72A, A73G, A117Y
modifications: acrylodan label
notes: acrylodan-labeled rI-FABP-L72A mutein: M18 I, G31 L, F55 WT, A73 G
B4: L1P17 A1: acrylodan-labeled rI-FABP mutein: Y14 I, L38 wt, L72 W, Y117 wt (protein, UniProt P02693 2-132, looked up, variant Y14I L72W)
Fatty acid-binding protein, …: B1 Fatty acid-binding protein, … with W14I, M72W, A117Y
modifications: acrylodan label
B5: L2P1E6: acrylodan-labeled rI-FABP-L72A mutein: M18 L, G31 WT, F55 WT, A73 L (protein, UniProt P02693 2-132, looked up, variant M18L L72A A73L)
Fatty acid-binding protein, …: B1 Fatty acid-binding protein, … with W14Y, M18L, M72A, A73L, A117Y
modifications: acrylodan label
B6: L2P7F4: acrylodan-labeled rI-FABP-L72A mutein: M18 V, G31 V, F55 WT, A73 I (protein, UniProt P02693 2-132, looked up, variant M18V G31V L72A A73I)
Fatty acid-binding protein, …: B1 Fatty acid-binding protein, … with W14Y, M18V, G31V, M72A, A73I, A117Y
modifications: acrylodan label
notes: acrylodan-labeled rI-FABP-L72A mutein: M18 V, G31 V, F55 WT, A73 I
B7: L2P9E12: acrylodan-labeled rI-FABP-L72A mutein: M18 L, G31 WT, F55 L, A73 I (protein, UniProt P02693 2-132, looked up, variant M18L F55L L72A A73I)
Fatty acid-binding protein, …: B1 Fatty acid-binding protein, … with W14Y, M18L, F55L, M72A, A73I, A117Y
modifications: acrylodan label
notes: acrylodan-labeled rI-FABP-L72A mutein: M18 L, G31 WT, F55 L, A73 I
B8: L1P8 D4: acrylodan-labeled rI-FABP mutein: Y14 M, L38 wt, L72 M, Y117 A (protein, UniProt P02693 2-132, looked up, variant Y14M L72M Y117A)
Fatty acid-binding protein, …: B1 Fatty acid-binding protein, … with W14M
modifications: acrylodan label
notes: acrylodan-labeled rI-FABP mutein: Y14 M, L38 wt, L72 M, Y117 A
B9: L2P8F11: acrylodan-labeled rI-FABP-L72A mutein: M18 WT, G31 WT, F55 WT, A73 I (protein, UniProt P02693 2-132, looked up, variant L72A A73I)
Fatty acid-binding protein, …: B1 Fatty acid-binding protein, … with W14Y, M72A, A73I, A117Y
modifications: acrylodan label
notes: acrylodan-labeled rI-FABP-L72A mutein: M18 WT, G31 WT, F55 WT, A73 I
B10: L1P12 E11: acrylodan-labeled rI-FABP mutein: Y14 L, L38 wt, L72 W, Y117 wt (protein, UniProt P02693 2-132, looked up, variant Y14L L72W)
Fatty acid-binding protein, …: B1 Fatty acid-binding protein, … with W14L, M72W, A117Y
modifications: acrylodan label
B11: L1P1 C3: acrylodan-labeled rI-FABP mutein: Y14 M, L38 wt, L72 W, Y117 wt (protein, UniProt P02693 2-132, looked up, variant Y14M L72W)
Fatty acid-binding protein, …: B1 Fatty acid-binding protein, … with W14M, M72W, A117Y
modifications: acrylodan label
B12: L2P22H10: acrylodan-labeled rI-FABP-L72A mutein: M18 I, G31 WT, F55 G, A73 M (protein, UniProt P02693 2-132, looked up, variant M18I F55G L72A A73M)
Fatty acid-binding protein, …: B1 Fatty acid-binding protein, … with W14Y, M18I, F55G, M72A, A73M, A117Y
modifications: acrylodan label
notes: acrylodan-labeled rI-FABP-L72A mutein: M18 I, G31 WT, F55 G, A73 M
B13: L1P7 H4: acrylodan-labeled rI-FABP mutein: Y14 I, L38 M, L72 W, Y117 wt (protein, UniProt P02693 2-132, looked up, variant Y14I L38M L72W)
Fatty acid-binding protein, …: B1 Fatty acid-binding protein, … with W14I, L38M, M72W, A117Y
modifications: acrylodan label
notes: acrylodan-labeled rI-FABP mutein: Y14 I, L38 M, L72 W, Y117 wt
B14: L2P21G3: acrylodan-labeled rI-FABP-L72A mutein: M18 I, G31 M, F55 M, A73 WT (protein, UniProt P02693 2-132, looked up, variant M18I G31M F55M L72A)
Fatty acid-binding protein, …: B1 Fatty acid-binding protein, … with W14Y, M18I, G31M, F55M, M72A, A117Y
modifications: acrylodan label
notes: acrylodan-labeled rI-FABP-L72A mutein: M18 I, G31 M, F55 M, A73 WT
B15: L2P8B8: acrylodan-labeled rI-FABP-L72A mutein: M18 WT, G31 WT, F55 WT, A73 F (protein, UniProt P02693 2-132, looked up, variant L72A A73F)
Fatty acid-binding protein, …: B1 Fatty acid-binding protein, … with W14Y, M72A, A73F, A117Y
modifications: acrylodan label
notes: acrylodan-labeled rI-FABP-L72A mutein: M18 WT, G31 WT, F55 WT, A73 F
B16: L1P5 A10: acrylodan-labeled rI-FABP mutein: Y14 wt, L38 wt, L72 wt, Y117 A (protein, UniProt P02693 2-132, looked up, variant Y117A)
Fatty acid-binding protein, …: B1 Fatty acid-binding protein, … with W14Y, M72L
modifications: acrylodan label
notes: acrylodan-labeled rI-FABP mutein: Y14 wt, L38 wt, L72 wt, Y117 A

Experiment: Probe fluorescence ratio response to oleate:BSA complex, relative to ADIFAB2 (ΔR/ΔRAD2)
Assay type: binding
Settings: fluorescence response (R-Ro) relative to ADIFAB2; oleate
Method: (§1) The intensity ratio (“R” value) for a given probe is determined. The ratio is calculated using the following formula: R=Fλ1/Fλ2 wherein, Fλ1, is the measured fluorescence intensities (intensity of sample with probe present minus intensity of sample without probe present) at wavelength 1 and Fλ2 is the measured fluorescence intensities (intensity of sample with probe present minus intensity of sample without probe present) at wavelength 2. Then, for a given probe, ΔR, the difference in R value between the measurement in the presence of the analyte and in the absence of the analyte, is calculated as follows: ΔR=R+analyte−R0 The ΔR value for a given probe is then compared to a reference probe, for example, ADIFAB or ADIFAB2, by ΔR/ΔRreference. This value is an indication of how dissimilar the new probe (derived by mutation of the template) is to the reference. By this method, probes with new and useful characteristics may be identified. Measurements of fluorescence intensities are obtained using standard techniques.
(§2) Mutant probes were screened in 96-well plates by fluorescence response to five fatty acids: arachidonate, linolenate, linoleate, oleate, and palmitate. Each fatty acid was prepared as a complex with BSA by slow addition of 50 mM stocks of fatty acid sodium salts at pH 11 to 600 μM BSA in HEPES buffer. During the formation of complexes, 15 μL aliquots were periodically measured with the reference probe, ADIFAB2, to determine the ΔR value upon excitation at 375 nm and fluorescence emission at 550 and 457 nm using a Fluorolog-3 spectrofluorometer (Jobin Yvon) (Richieri et al, Molecular and Cellular Biochemistry (1999), 192:87-94 & Richieri et al, J. Biol. Chem. (1996), 271:31068-31074). Complexes were prepared such that the final ΔR was approximately 0.4 which correspond to [FFAu] ranging from 100 to 1000 nM depending on FFA type. These complexes buffer or clamp the FFAu levels at fixed values and therefore ensure the accurate comparison of different probes with the same FFAu concentrations. In contrast, addition of FFAu alone (i.e. uncomplexed FFA) introduces considerable uncertainty in comparing different probes because the FFAu level will be affected by binding to the dispensing device, the walls of the multi-well plates and to the probe itself. Thus, the terms “buffer” and “clamp” as used in this particular context herein are taken to mean the ability of a carrier macromolecule to complex with an unbound metabolite so that the unbound metabolite is presented accurately for measurement purposes and is prevented from non-specific binding such as binding to laboratory apparatus.
(§3) Plates were prepared and read in two stages. First, complexes and fatty acid free BSA were diluted to 6 μM BSA in HEPES and added to the 96-well plate at 300 μL per well. A MultiProbe II HT (Perkin Elmer) (an automated liquid handling system) was used to facilitate plate preparation for high throughput screening, but any automated or manual pipetting system will suffice. The background fluorescence was then measured at the same wavelengths as used for ADIFAB2 using a Fluorolog-3 spectrofluorometer with an external Micromax 384 fluorescence plate reader (Jobin Yvon). In the second stage, 30 μL aliquots of the mutant probes were added to multiple wells of the plate, one for each fatty acid and one with fatty acid free BSA only, and the fluorescence intensity at each wavelength was again measured on the plate reader. After subtraction of the background fluorescence, the fluorescence ratio of each well was calculated.
(§4) The fluorescence response was quantitatively compared to ADIFAB2 to search for changes in magnitude and fatty acid profile; for example the response to one fatty acid relative to another. For each probe the ratio differences (AR) between wells with each fatty acid compared to a corresponding well with fatty acid free BSA were recorded. […]

| Molecule | ΔR/ΔRAD2 OA |
| --- | --- |
| B1 | 0.7 |
| B2 | −1.7 |
| B3 | 0.6 |
| B4 | −1.2 |
| B5 | 0.1 |
| B6 | 0.6 |
| B7 | 0.6 |
| B8 | 1.1 |
| B9 | 0.0 |
| B10 | −1.0 |
| B11 | −1.3 |
| B12 | 0.6 |
| B13 | −1.4 |
| B14 | 0.6 |
| B15 | 0.6 |
| B16 | 1.1 |

Experiment: Probe fluorescence ratio response to palmitate:BSA complex, relative to ADIFAB2 (ΔR/ΔRAD2)
Assay type: binding
Settings: fluorescence response (R-Ro) relative to ADIFAB2; palmitate
Method: as §1, §2, §3, §4

| Molecule | ΔR/ΔRAD2 PA |
| --- | --- |
| B1 | 0.8 |
| B2 | −0.6 |
| B3 | 1.1 |
| B4 | −0.4 |
| B5 | 0.0 |
| B6 | 1.3 |
| B7 | 1.1 |
| B8 | 0.9 |
| B9 | 0.0 |
| B10 | −0.1 |
| B11 | −0.4 |
| B12 | 1.1 |
| B13 | −0.6 |
| B14 | 1.1 |
| B15 | 1.1 |
| B16 | 0.4 |

Experiment: Probe fluorescence ratio response to arachidonate:BSA complex, relative to ADIFAB2 (ΔR/ΔRAD2)
Assay type: binding
Settings: fluorescence response (R-Ro) relative to ADIFAB2; arachidonate
Method: as §1, §2, §3, §4

| Molecule | ΔR/ΔRAD2 AA |
| --- | --- |
| B1 | 0.9 |
| B2 | −1.3 |
| B3 | 1.0 |
| B4 | −0.8 |
| B5 | 0.4 |
| B6 | 0.8 |
| B7 | 0.6 |
| B8 | 1.6 |
| B9 | 0.4 |
| B10 | −0.5 |
| B11 | −0.9 |
| B12 | 0.9 |
| B13 | −1.0 |
| B14 | 1.0 |
| B15 | 1.1 |
| B16 | 1.5 |

Experiment: Probe fluorescence ratio response to stearate:BSA complex, relative to ADIFAB2 (ΔR/ΔRAD2)
Assay type: binding
Settings: fluorescence response (R-Ro) relative to ADIFAB2

| Molecule | ΔR/ΔRAD2 SA |
| --- | --- |
| B3 | 0.3 |
| B5 | 0.2 |
| B6 | 0.3 |
| B7 | 0.4 |
| B9 | 0.3 |
| B12 | 0.4 |
| B14 | 0.3 |
| B15 | 0.4 |

Experiment: Probe fluorescence ratio response to linoleate:BSA complex, relative to ADIFAB2 (ΔR/ΔRAD2)
Assay type: binding
Settings: fluorescence response (R-Ro) relative to ADIFAB2; linoleate
Method: as §1, §2, §3, §4

| Molecule | ΔR/ΔRAD2 LA |
| --- | --- |
| B1 | 1.1 |
| B2 | −1.5 |
| B3 | 1.1 |
| B4 | −1.0 |
| B5 | 0.1 |
| B6 | 1.1 |
| B7 | 0.7 |
| B8 | 2.0 |
| B9 | 0.0 |
| B10 | −0.7 |
| B11 | −1.1 |
| B12 | 1.1 |
| B13 | −1.3 |
| B14 | 1.1 |
| B15 | 1.2 |
| B16 | 1.2 |

Experiment: Probe fluorescence ratio response to palmitoleate:BSA complex, relative to ADIFAB2 (ΔR/ΔRAD2)
Assay type: binding
Settings: fluorescence response (R-Ro) relative to ADIFAB2

| Molecule | ΔR/ΔRAD2 POA |
| --- | --- |
| B3 | 1.4 |
| B5 | 0.1 |
| B6 | 1.3 |
| B7 | 0.8 |
| B9 | 0.1 |
| B12 | 1.2 |
| B14 | 1.4 |
| B15 | 2.4 |

Experiment: Probe fluorescence ratio response to linolenate:BSA complex, relative to ADIFAB2 (ΔR/ΔRAD2)
Assay type: binding
Settings: fluorescence response (R-Ro) relative to ADIFAB2; linolenate
Method: as §1, §2, §3, §4

| Molecule | ΔR/ΔRAD2 LNA |
| --- | --- |
| B1 | 1.3 |
| B2 | −1.3 |
| B3 | 1.5 |
| B4 | −0.9 |
| B5 | 0.1 |
| B6 | 1.5 |
| B7 | 0.9 |
| B8 | 2.0 |
| B9 | 0.1 |
| B10 | −0.7 |
| B11 | −1.0 |
| B12 | 1.3 |
| B13 | −1.1 |
| B14 | 1.4 |
| B15 | 1.8 |
| B16 | 0.7 |
